Earlier results in patent US20070231406A1, “Use of gallium to treat biofilm-associated infections” (priority 2006, published 2007).

Tested on: Pseudomonas aeruginosa biofilm
Settings: 20 μg/ml lactoferrin

B1: lactoferrin (protein, UniProt P02788 20-710, looked up)
Lactotransferrin: GRRRSVQWCAVSQPEATKCFQWQRNMRKVRGPPVSCIKRDSPIQCIQAIAENRADAVTLDGGFIYEAGLAPYKLRPVAAEVYGTERQPRTHYYAVAVVKKGGSFQLNELQGLKSCHTGLRRTAGWNVPIGTLRPFLNWTGPPEPIEAAVARFFSASCVPGADKGQFPNLCRLCAGTGENKCAFSSQEPYFSYSGAFKCLRDGAGDVAFIRESTVFEDLSDEAERDEYELLCPDNTRKPVDKFKDCHLARVPSHAVVARSVNGKEDAIWNLLRQAQEKFGKDKSPKFQLFGSPSGQKDLLFKDSAIGFSRVPPRIDSGLYLGSGYFTAIQNLRKSEEEVAARRARVVWCAVGEQELRKCNQWSGLSEGSVTCSSASTTEDCIALVLKGEADAMSLDGGYVYTAGKCGLVPVLAENYKSQQSSDPDPNCVDRPVEGYLAVAVVRRSDTSLTWNSVKGKKSCHTAVDRTAGWNIPMGLLFNQTGSCKFDEYFSQSCAPGSDPRSNLCALCIGDEQGENKCVPNSNERYYGYTGAFRCLAENAGDVAFVKDVTVLQNTDGNNNEAWAKDLKLADFALLCLDGKRKPVTEARSCHLAMAPNHAVVSRMDKVERLKQVLLHQQAKFGRNGSDCPDKFCLFQSETKNLLFNDNTECLARLHGKTTYEKYLGPQYVAGITNLKKCSTSPLLEACEFLRK
  Pseudomonas aeruginosa biofilm formation: inhibited
